This passage reports ECL signal results from patent publication US20120058906A1 (published 2012).

The target in assay [1] is T1, rHuman P-Cadherin/Fc Chimera, CF (R&D Systems Cat#861-PC) (human, UniProt P22223 108-654).
T1 construct: Bought Fc chimera; Fc part of the bought chimera not given
Kind of assay: MSD ECL titration, Fab 148.9 nM, blank 218.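 Also: blank spot per well as comparator with Hit at signal to blank ratio of 4 or more.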

Assay [2] addresses T2, rHuman EGF R/Fc Chimera, CF (R&D Systems Cat#344-ER) (human, UniProt P00533 25-645).
T2 construct: Bought Fc chimera; Fc part of the bought chimera not given
The assay is described as follows: MSD ECL titration, Fab 148.9 nM, blank 218.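 Also: blank spot per well as comparator with Hit at signal to blank ratio of 4 or more.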

Assay [3] addresses T3, rHuman IGF-1 sR (insulin-like growth factor-1 soluble receptor), CF (R&D Systems Cat#391-GR) (human, UniProt P08069 31-932).
T3 construct: Bought soluble receptor; also called IGF-R1
The assay is described as follows: MSD ECL titration, Fab 148.9 nM, blank 218.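 Also: blank spot per well as comparator with Hit at signal to blank ratio of 4 or more.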

The target in assay [4] is T4, rHuman Erythropoietin R/Fc Chimera, CF (R&D Systems Cat#963-ER) (human, UniProt P19235 25-250).
T4 construct: Bought Fc chimera; also called EPO R/Fc; EPOR; Fc part of the bought chimera not given
T4 sequence: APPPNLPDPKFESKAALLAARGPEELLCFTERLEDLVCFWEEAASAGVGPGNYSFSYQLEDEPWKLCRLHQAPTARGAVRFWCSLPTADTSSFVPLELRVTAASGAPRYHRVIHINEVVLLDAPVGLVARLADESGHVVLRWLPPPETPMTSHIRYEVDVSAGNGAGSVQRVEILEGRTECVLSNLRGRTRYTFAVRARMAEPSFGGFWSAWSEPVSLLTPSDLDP
The assay is described as follows: MSD ECL titration, Fab 148.9 nM, blank 218.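 Also: blank spot per well as comparator with Hit at signal to blank ratio of 4 or more.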

The target in assay [5] is T5, rHuman Notch-1/Fc Chimera, CF (R&D Systems Cat#3647-TK) (human, UniProt P46531 19-526).
T5 construct: Bought Fc chimera; Fc part of the bought chimera not given
Kind of assay: MSD ECL titration, Fab 148.9 nM, blank 218.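 Also: blank spot per well as comparator with Hit at signal to blank ratio of 4 or more.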

For assay [6], the target named is T6, rHuman HGF R/c-MET/Fc Chimera, CF (R&D Systems Cat#358-MT/CF) (human, UniProt P08581 25-932).
T6 construct: Bought Fc chimera; also called HGF R/Fc; Fc part of the bought chimera not given
Kind of assay: MSD ECL titration, Fab 148.9 nM, blank 218.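 Also: blank spot per well as comparator with Hit at signal to blank ratio of 4 or more.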

Assay [7] addresses T7, rHuman CD44/Fc Chimera, CF (R&D Systems Cat#3660-CD) (human, UniProt P16070 21-220).
T7 construct: Bought Fc chimera; Fc part of the bought chimera not given
Kind of assay: MSD ECL titration, Fab 148.9 nM, blank 218.

Assay [8] has as its target T8, rHuman ErbB2/Fc Chimera, CF (R&D Systems Cat#1129-ER) (human, UniProt P04626 23-652).
T8 construct: Bought Fc chimera; also called HER2/neu; Fc part of the bought chimera not given
Kind of assay: MSD ECL titration, Fab 148.9 nM, blank 218.

Assay [9] has as its target T9, Recombinant Human DLL4 (R&D Systems Cat#1506-D4/CF) (human, UniProt Q9NR61 27-524).
T9 construct: Bought recombinant protein; also called rHuman DLL4; delta-like protein 4
Kind of assay: MSD ECL titration, Fab 148.9 nM, blank 218.

Assay [10] addresses T1, rHuman P-Cadherin/Fc Chimera, CF (R&D …). The assay is described as follows: MSD ECL titration, Fab 0.6 nM, blank 226.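 Also: blank spot per well as comparator with Hit at signal to blank ratio of 4 or more.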
In assay [11] the target is T3, rHuman IGF-1 sR (insulin-like growth …). Kind of assay: MSD ECL titration, Fab 0.6 nM, blank 226.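 Also: blank spot per well as comparator with Hit at signal to blank ratio of 4 or more.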
Assay [12] deals with T4, rHuman Erythropoietin R/Fc Chimera, CF …. The assay is described as follows: MSD ECL titration, Fab 0.6 nM, blank 226.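 Also: blank spot per well as comparator with Hit at signal to blank ratio of 4 or more.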
The target of assay [13] is T5, rHuman Notch-1/Fc Chimera, CF (R&D …). Kind of assay: MSD ECL titration, Fab 0.6 nM, blank 226.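 Also: blank spot per well as comparator with Hit at signal to blank ratio of 4 or more.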
For assay [14], the target named is T6, rHuman HGF R/c-MET/Fc Chimera, CF (R&D …). Kind of assay: MSD ECL titration, Fab 0.6 nM, blank 226.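 Also: blank spot per well as comparator with Hit at signal to blank ratio of 4 or more.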
For assay [15], the target named is T7, rHuman CD44/Fc Chimera, CF (R&D Systems …). The assay is described as follows: MSD ECL titration, Fab 0.6 nM, blank 226.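 Also: blank spot per well as comparator with Hit at signal to blank ratio of 4 or more.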
Assay [16] deals with T8, rHuman ErbB2/Fc Chimera, CF (R&D …). Kind of assay: MSD ECL titration, Fab 0.6 nM, blank 226.
Assay [17] concerns the target T9, Recombinant Human DLL4 (R&D Systems …). Kind of assay: MSD ECL titration, Fab 0.6 nM, blank 226.
Assay [18] addresses T10, rHuman Erythropoietin R/Fc Chimera, CF (R&D Systems Cat#963-ER) (human, UniProt P19235 25-250).
T10 construct: Bought Fc chimera; also called EPO R/Fc; Epo R; not shown: Fc of the bought chimera
T10 sequence: T4 sequence
Kind of assay: ECL (MSD multi-spot), antigen on plate, Fab 50 nM.

The target of assay [19] is T11, rHuman Notch-1/Fc Chimera, CF (R&D Systems Cat#3647-TK) (human, UniProt P46531 19-526).
T11 construct: Bought Fc chimera; not shown: Fc of the bought chimera
The assay is described as follows: ECL (MSD multi-spot), antigen on plate, Fab 50 nM.

In assay [20] the target is T12, rHuman ErbB2/Fc Chimera, CF (R&D Systems Cat#1129-ER) (human, UniProt P04626 23-652).
T12 construct: Bought Fc chimera; also called HER2/neu; not shown: Fc of the bought chimera
Kind of assay: ECL (MSD multi-spot), antigen on plate, Fab 50 nM.

Assay [21] concerns the target T13, rHuman HGF R/c-MET/Fc Chimera, CF (R&D Systems Cat#358-MT/CF) (human, UniProt P08581 25-932).
T13 construct: Bought Fc chimera; also called HGF R/Fc; not shown: Fc of the bought chimera
The assay is described as follows: ECL (MSD multi-spot), antigen on plate, Fab 50 nM.

Where a chain is given by its changes, count along the chain named.

B1: Fab VH1-46_IGHD6-6*01_IGHJ1*01 & L6_IGKJ1*01 (Fab, V domains shown)
VH: QVQLVQSGAEVKKPGASVKVSCKASGYTFTSYYMHWVRQAPGQGLEWMGIINPSGGSTSYAQKFQGRVTMTRDTSTSTVYMELSSLRSEDTAVYYCAREEYSSSSAEYFQHWGQGTLVTVSS
VL: not shown
notes: Expressed in E. coli as Fab: heavy chain with CH1 plus Flag and His tags from Plasmid A, kappa light chain constant region from Plasmid C; also called Fab No. 1
For B1, the ECL signal amounted to 687 in [1]; 290 in assay [2]; 322 in assay [3]; 373 in assay [4]; 375 in [5]; 205 in assay [6]. Further, the ECL signal is 348 in assay [7]; 247 in [8]; 16300 in assay [9]; 321 in assay [10]; 313 in [11]; 337 in assay [12]. Besides, the ECL signal stood at 337 in assay [13]; 256 in assay [14]; 238 in [15]; 215 in assay [16]; 508 in [17].

B2: Fab VH1-46_IGHD6-6*01_IGHJ1*01_S102A_S103P_S104Y_H111Y & L6_IGKJ1*01 (Fab, V domains shown)
VH: B1 VH with S102A, S103P, S104Y, H111Y
VL: not shown
notes: Fab made in E. coli; The heavy chain also carries CH1 with Flag and His tags from Plasmid A, and the light chain carries kappa CL from Plasmid C
For B2, the ECL signal in [18] was determined as 533 ECL signal; in [19], 389 ECL signal; in [20], 470 ECL signal; in assay [21] it was 312 ECL signal.
